For three substances, hypersensitive response in N. benthamiana leaves on co-production of full-length PsSYM10 and full-length PsK1-6xHIS with P169→S; percent of leaves with HR, hypersensitive response in N. benthamiana leaves on co-production of full-length PsSYM10 and full-length PsK1-6xHIS with the LysM1 replacement (k1-3); percent of leaves with HR and hypersensitive response (cell death) in N. benthamiana leaves 48–72 h after infiltration, on co-production of full-length PsSYM10-3xFLAG and PsK1-6xHIS; percent of leaves with HR results are on record in publication PMC6479807.

Assay [1] deals with PsSYM10 extracellular domain (PsSYM10-ECD) (Pisum sativum (pea)).
The target is the same in assay [2]. The source holds these as a separate data set.
For assay [3] the target is unchanged. This is another data set of the same source.

“PsK1-ECD with P169S replacement in LysM3 (as in the k1-2 mutant line) (domain or fragment)” had a hypersensitive response in N. benthamiana leaves on co-production of full-length PsSYM10 and full-length PsK1-6xHIS with P169→S; percent of leaves with HR in assay [1] of 53%.
In assay [2], “PsK1-ECD with S59F replacement in LysM1 (as in the k1-3 mutant line) (domain or fragment)” came in with a hypersensitive response in N. benthamiana leaves on co-production of full-length PsSYM10 and full-length PsK1-6xHIS with the LysM1 replacement (k1-3); percent of leaves with HR of 93%.
Regarding “PsK1 extracellular domain (PsK1-ECD), wild type (domain or fragment)”, in assay [3], the hypersensitive response (cell death) in N. benthamiana leaves 48–72 h after infiltration, on co-production of full-length PsSYM10-3xFLAG and PsK1-6xHIS; percent of leaves with HR came to 90%.
